Patent US20250129140A1, “ANTI-HCMV ANTIBODIES AND ANTIGEN-BINDING FRAGMENTS THEREOF” (ICAHN SCHOOL OF MEDICINE AT MOUNT SINAI, priority 2021, published 2025)

Molecular target: MHC class I on ARPE-19 cells (Homo sapiens)
Assay: flow cytometry on ARPE-19 cells infected with AD169R (GFP reporter), 6 dpi, antibody 2 µg/mL, anti-mouse AF647 secondary

**Q.** With α-MHC-1 (W6/32) (antibody) as the substance, how does the Q1, percent of cells GFP- and Alexa Fluor 647+ read?
**A.** 86.9%

**Q.** What about the Q2, percent of cells GFP+ and Alexa Fluor 647+ of the same substance?
**A.** 12.7%
